These results are taken from doi:10.1101/2020.07.10.197400 (bioRxiv, 2020).

Series [1] has as its target Trx-kindlin2_F2 (residues 260 – 572) without PH domain (mouse). The series is described as follows: SEC-MALS.
Series [2] deals with the molecule itself. The series can be described thus: SEC-MALS. (In gel filtration, larger molecules generally elute earlier.)

The term stoichiometry N denotes the number of molecules, sites or subunits per partner or assembly. Consider “Trx-kindlin2_F2 (residues 260 – 572) without PH domain (domain or fragment)”, for which the stoichiometry N in series [1] was 2.

B1: GCN4-tetramerized β1-integrin tail (domain or fragment)
chain: MKQIEDKLEEILSKLYHIENELARIKKLLGERIIHDRREFAKFEKEKMNAKWDTGENPIYKSAVTTVVNPKYEGK
Regarding B1, the “stoichiometry N” value in series [2] came to 4.
